Test in all cases: BLI
(In general: BLI is a label-free optical method that tracks binding on a fibre tip over time.)

Assay [1] addresses VIC16 REFORMab SDIEALGA (G236A/S239D/A330L/I332E) (mouse | human).
Assay [2] has as its target VIC16 REFORMab KWES (printed K236W/E333S) (mouse | human).
Assay [3] deals with VIC16 REFORMab LALA (L234A/L235A) (mouse | human).
Assay [4] addresses VIC16 REFORMab EFTEA (G236A/S267E/H268F/S324T/I332E) (mouse | human).

B1: recombinant murine FcγRIII (receptor)
chain: ALPKAVVKLDPPWIQVLKEDMVTLMCEGTHNPGNSSTQWFHNGRSIRSQVQASYTFKATVNDSGEYRCQMEQTRLSDPVDLGVISDWLLLQTPQRVFLEGETITLRCHSWRNKLLNRISFFHNEKSVRYHHYKSNFSIPKANHSHSGDYYCKGSLGSTQHQSKPVTITVQDPATTSSISLVWYHT
modifications: soluble ectodomain by convention (UniProt topology); tag not stated
One may read the Kd as the free concentration of one partner at which half of the binding sites on the other are occupied at equilibrium, for simple one-to-one binding. On to B1, for which the dissociation constant Kd stood at 10 nM in assay [1], 20 nM in assay [2], 820000 nM in assay [3] and 1100 nM in assay [4].

B2: recombinant murine FcγRIV (receptor)
chain: GLQKAVVNLDPKWVRVLEEDSVTLRCQGTFSPEDNSIKWFHNESLIPHQDANYVIQSARVKDSGMYRCQTALSTISDPVQLEVHMGWLLLQTTKWLFQEGDPIHLRCHSWQNRPVRKVTYLQNGKGKKYFHENSELLIPKATHNDSGSYFCRGLIGHNNKSSASFRISLGDPGSPSMFPPWHQ
modifications: soluble ectodomain by convention (UniProt topology); tag not stated
B2: the figures for the Kd in assay [1], in assay [2] and in assay [4] were 1 nM, 160 nM and 120 nM, respectively.

B3: recombinant murine FcγRIIb (receptor)
chain: THDLPKAVVKLEPPWIQVLKEDTVTLTCEGTHNPGNSSTQWFHNGRSIRSQVQASYTFKATVNDSGEYRCQMEQTRLSDPVDLGVISDWLLLQTPQLVFLEGETITLRCHSWRNKLLNRISFFHNEKSVRYHHYSSNFSIPKANHSHSGDYYCKGSLGRTLHQSKPVTITVQGPKSSRSLP
modifications: soluble ectodomain by convention (UniProt topology); tag not stated
For the molecule B3, the Kd is 130 nM in assay [1], 46000 nM in assay [2] and 490 nM in assay [4].

The record behind these values is article PMC8111768 (Immunity, 2021).
